The target in the data set is NS3h (NS3 helicase domain) (Dengue virus serotype 2 (cDNA of …, UniProt O09234 1646-2093)). The experiment in a line: fluorescence intensity titration (ex 495 nm, em 525-570 nm), 1:1 single-site fit; 1.5 mM free Mg2+; no ATP stated; constant printed as 'K' in nM, subscript lost, read as Kd. The settings on record: protein: recombinant; tags: N-terminal His6 (pET-28a); label: 5'-fluorescein.

The Kd is the constant that tells how readily two partners part at equilibrium.

For the molecule AGUUGAGUUG (ssRNA) [fluorescein-labeled 10-nt ssRNA], the Kd is 0.75 ± 0.08 nM.

Source of the values: paper PMC3602377, “Steady-State NTPase Activity of Dengue Virus NS3: Number of Catalytic Sites, Nucleotide Specificity and Activation by ssRNA”.
